What all share (experiment): indirect ELISA, VLP coated at 2 µg/mL, antibody 10 ng/mL, HRP goat anti-rabbit Fc
A general note: In an ELISA, binding on a coated surface is turned into a signal by an enzyme label.

One assay deals with T1, HPV11 VLP protein (human papillomavirus type 11; human …, UniProt P04012 1-470; P06416 474-499).
T1 construct: range 1-470;range 474-499; Complete VLP protein used as coating protein
T1 sequence: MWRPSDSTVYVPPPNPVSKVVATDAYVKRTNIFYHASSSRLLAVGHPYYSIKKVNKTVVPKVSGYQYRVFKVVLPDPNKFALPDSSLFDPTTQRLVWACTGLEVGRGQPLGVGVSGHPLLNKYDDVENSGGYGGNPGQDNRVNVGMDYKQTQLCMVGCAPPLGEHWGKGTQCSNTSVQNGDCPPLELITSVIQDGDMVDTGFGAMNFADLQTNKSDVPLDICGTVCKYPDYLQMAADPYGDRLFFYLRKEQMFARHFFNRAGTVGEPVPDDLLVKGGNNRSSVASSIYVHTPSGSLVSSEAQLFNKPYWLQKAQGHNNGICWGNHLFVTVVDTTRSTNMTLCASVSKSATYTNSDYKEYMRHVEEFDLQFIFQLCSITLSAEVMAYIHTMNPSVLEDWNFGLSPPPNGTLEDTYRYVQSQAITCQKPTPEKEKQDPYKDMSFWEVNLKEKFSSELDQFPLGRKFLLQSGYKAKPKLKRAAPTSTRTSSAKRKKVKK

A further assay has as its target T2, HPV35 VLP protein (human papillomavirus type 35; human …, UniProt P27232 1-472; P06416 474-499).
T2 construct: range 1-472;range 474-499; Complete VLP protein used as coating protein; also called HPV35L1(1-472L)+HPV33L1(474K-499K)
T2 sequence: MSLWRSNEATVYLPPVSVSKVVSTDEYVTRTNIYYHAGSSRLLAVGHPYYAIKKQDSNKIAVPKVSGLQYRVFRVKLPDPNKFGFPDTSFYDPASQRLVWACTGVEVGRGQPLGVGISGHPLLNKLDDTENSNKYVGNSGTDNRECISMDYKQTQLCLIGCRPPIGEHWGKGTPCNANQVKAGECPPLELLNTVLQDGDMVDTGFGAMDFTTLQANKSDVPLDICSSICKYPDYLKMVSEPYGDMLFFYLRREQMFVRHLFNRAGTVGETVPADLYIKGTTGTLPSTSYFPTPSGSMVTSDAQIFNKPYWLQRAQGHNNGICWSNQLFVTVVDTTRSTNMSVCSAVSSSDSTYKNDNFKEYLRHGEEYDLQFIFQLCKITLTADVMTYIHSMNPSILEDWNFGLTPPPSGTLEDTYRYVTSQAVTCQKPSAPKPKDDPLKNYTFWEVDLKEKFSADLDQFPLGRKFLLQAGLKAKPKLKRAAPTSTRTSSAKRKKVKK

A further assay addresses T3, HPV56 VLP protein (human papillomavirus type 56, UniProt P36743 36-507).
T3 construct: Complete VLP protein; no limits of the construct printed, whole entry named; also called HPV56L1
T3 sequence: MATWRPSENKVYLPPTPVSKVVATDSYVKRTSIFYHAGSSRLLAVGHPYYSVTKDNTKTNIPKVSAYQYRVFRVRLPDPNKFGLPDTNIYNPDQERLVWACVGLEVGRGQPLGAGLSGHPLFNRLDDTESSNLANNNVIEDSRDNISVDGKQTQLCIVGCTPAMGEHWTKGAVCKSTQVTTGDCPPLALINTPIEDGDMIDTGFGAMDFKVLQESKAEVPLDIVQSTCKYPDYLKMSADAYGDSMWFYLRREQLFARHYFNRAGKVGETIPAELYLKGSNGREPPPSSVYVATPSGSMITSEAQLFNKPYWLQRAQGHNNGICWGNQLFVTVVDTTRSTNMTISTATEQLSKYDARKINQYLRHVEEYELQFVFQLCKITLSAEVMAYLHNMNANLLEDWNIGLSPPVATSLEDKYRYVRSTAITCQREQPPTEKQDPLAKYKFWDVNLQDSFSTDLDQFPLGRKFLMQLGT

A further assay has as its target T4, HPV18 VLP protein (human papillomavirus type 18).
T4 construct: Complete VLP protein; no limits of the construct printed, whole entry named; also called P18SHELL

The target in another assay is T5, HPV16 VLP protein (human papillomavirus type 16, UniProt P03101 1-474).
T5 construct: Complete VLP protein; no limits of the construct printed, whole entry named; also called HPV-16L1
T5 sequence: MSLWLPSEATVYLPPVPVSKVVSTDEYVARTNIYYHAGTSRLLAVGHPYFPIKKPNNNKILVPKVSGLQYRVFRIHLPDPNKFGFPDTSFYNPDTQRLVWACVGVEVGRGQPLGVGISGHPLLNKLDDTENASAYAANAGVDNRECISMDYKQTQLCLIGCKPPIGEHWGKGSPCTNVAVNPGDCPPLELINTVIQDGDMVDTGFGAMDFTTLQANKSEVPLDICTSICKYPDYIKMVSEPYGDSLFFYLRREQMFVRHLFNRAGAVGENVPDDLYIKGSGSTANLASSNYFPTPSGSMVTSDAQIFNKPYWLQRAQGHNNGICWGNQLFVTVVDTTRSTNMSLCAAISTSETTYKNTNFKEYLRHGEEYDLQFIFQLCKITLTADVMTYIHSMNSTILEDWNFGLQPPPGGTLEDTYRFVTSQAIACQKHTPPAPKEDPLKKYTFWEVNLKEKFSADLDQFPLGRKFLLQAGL

Another assay addresses T6, HPV59 VLP protein (human papillomavirus type 59).
T6 construct: Complete VLP protein; no limits of the construct printed, whole entry named; also called HPV59L1

A further assay deals with HPV39 VLP protein (human papillomavirus type 39; human …, UniProt P24838 1-469).

B1: monoclonal antibody HPV6-R003 (antibody, V domains shown)
VH: QQQLEESGGGLVKPGGTLTLTCKASGIDLSNYYMCWVRQAPGKGLEWIGCIYTGSGRTYYASWAKGRFTISKASSTTVTLQMTSLTAADTATYFCARDYLGWRASNIWGPGTLVTVSS
VL: ELVMTQTPSSVSAAVGGTVTINCQASQSVYSNNLVWYQQKPGQPPKLLIYGASTLASGVPSRFKGSGSGTQFTLTISDVVCDDAATYYCGGYVSDSTDGTAFGGGTEVVVKG
notes: here built from variable plus constant region so that the signal peptides are left out; In the sandwich ELISA the same antibody is used as coating antibody and, labelled with horseradish peroxidase, as detection antibody; also called anti-HPV6 L1 protein antibody
Regarding B1, the OD450-blank was determined as 0.053 OD450 with HPV11 VLP protein; 0.048 OD450 with HPV35 VLP protein; 0.042 OD450 with HPV56 VLP protein; 0.045 OD450 with HPV18 VLP protein; 0.048 OD450 with HPV16 VLP protein; 0.041 OD450 with HPV59 VLP protein. This molecule came in with an OD450-blank with HPV39 VLP protein of 0.047 OD450.

The values above are taken from patent publication US20240158474A1 (SINO BIOLOGICAL, published 2024).
